# Source: PMC2645956
# Biological target: Paracoccus denitrificans soluble cytochrome c552 fragment, wild-type (unlabeled) (Paracoccus denitrificans) (UniProt P54820)
# Sequence of UniProt P54820 (P54820 78-176): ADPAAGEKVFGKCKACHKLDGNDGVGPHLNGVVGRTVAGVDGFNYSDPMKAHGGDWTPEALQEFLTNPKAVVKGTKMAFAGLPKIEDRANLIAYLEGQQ
substance,measurement,value
"Paracoccus denitrificans soluble cytochrome c1 core fragment, wild-type (domain or fragment)","Brønsted parameter ZAZB of the ionic strength dependence of k12, stopped-flow",-4
